Measured values as given in PMC3792052, “Structural Analysis of Intermolecular Interactions in the Kinesin Adaptor Complex Fasciculation and Elongation Protein Zeta 1/ Short Coiled-Coil Protein (FEZ1/SCOCO)” (PLoS ONE, 2013).
One block for each molecule: values may come before it.

Legend:
[1] = target: 6xHis-FEZ1 (1-392) (human) (UniProt Q99689); assay: SAXS; complex formed by lysing the two E. coli pellets together, two-step co-affinity purification (6xHis, then GST); purified complex at 1.10 and 0.34 mg/mL in PBS, 20 °C; mass from I(0) against BSA
[2] = target: the molecule itself; assay: as above

- stoichiometry N (GST-SCOCO per 6xHis-FEZ1 (2:2)) [1]: 1
Molecule: GST-SCOCO (2-82) (natural protein)

B1: 6xHis-FEZ1 (1-392) (natural protein, human, UniProt Q99689 1-392, looked up)
chain: MEAPLVSLDEEFEDLRPSCSEDPEEKPQCFYGSSPHHLEDPSLSELENFSSEIISFKSMEDLVNEFDEKLNVCFRNYNAKTENLAPVKNQLQIQEEEETLQDEEVWDALTDNYIPSLSEDWRDPNIEALNGNCSDTEIHEKEEEEFNEKSENDSGINEEPLLTADQVIEEIEEMMQNSPDPEEEEEVLEEEDGGETSSQADSVLLQEMQALTQTFNNNWSYEGLRHMSGSELTELLDQVEGAIRDFSEELVQQLARRDELEFEKEVKNSFITVLIEVQNKQKEQRELMKKRRKEKGLSLQSSRIEKGNQMPLKRFSMEGISNILQSGIRQTFGSSGTDKQYLNTVIPYEKKASPPSVEDLQMLTNILFAMKEDNEKVPTLLTDYILKVLCPT
notes: Predicted mass of the tagged protein printed as 48.8 KDa; also called fasciculation and elongation protein zeta 1; source: for SAXS cells lysed together with GST-SCOCO cells and co-purified (HiTrap chelating, then GST-Trap)
- stoichiometry N [2]: 2
